From US20170355734A1 (INSERM INSTITUT NATIONAL DE LA SANT ET DE LA RECHERCHE M …, published 2017) come the findings set out here.

Usually Ki stands for the equilibrium dissociation constant of an inhibitor or competing ligand from its target. For orientation: IC50 means the concentration that inhibits the measured activity by half. A high value points to weaker potency.

Like-named read-outs stand apart in the source and are kept apart here. Where no end group is shown, it is not given here. [ ]: non-standard residue; d: D form. The star is where a group is joined. Propanoyl(3-C8F17) = O=C(CCC(F)(F)C(F)(F)C(F)(F)C(F)(F)C(F)(F)C(F)(F)C(F)(F)C(F)(F)F)*; Phe(4-Br) = N[C@@H](Cc1ccc(Br)cc1)C(=O)O; fluorocarbon group = not defined here; Palmitoyl = CCCCCCCCCCCCCCCC(=O)*; acyl group = not defined here; Nle = CCCC[C@H](N)C(=O)O; Aib = CC(C)(N)C(=O)O

Assay [1] addresses T1, wild-type rat apelin receptor-EGFP (rat, UniProt Q9JHG3 1-377, EGFP is fused at the C-terminal (intracellular) end of the receptor. It is not included in the letters.).
T1 sequence: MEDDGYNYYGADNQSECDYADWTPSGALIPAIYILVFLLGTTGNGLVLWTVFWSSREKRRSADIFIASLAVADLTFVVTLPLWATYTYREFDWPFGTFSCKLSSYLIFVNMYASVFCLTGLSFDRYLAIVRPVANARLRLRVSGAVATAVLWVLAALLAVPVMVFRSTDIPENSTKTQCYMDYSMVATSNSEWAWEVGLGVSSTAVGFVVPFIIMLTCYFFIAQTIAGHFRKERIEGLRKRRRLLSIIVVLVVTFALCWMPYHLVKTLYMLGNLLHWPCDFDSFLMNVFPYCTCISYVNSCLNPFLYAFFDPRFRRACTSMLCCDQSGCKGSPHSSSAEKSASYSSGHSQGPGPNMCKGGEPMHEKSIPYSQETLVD
Briefly: cell-based or functional assay.

Assay [2] has as its target T1, wild-type rat apelin receptor-EGFP. Briefly: radioligand binding on membrane preparation from CHO cells stably expressing the rat apelin receptor-EGFP.
Assay [3] has the same target. Briefly: competitive radioligand binding vs [125I]-pE13F, membranes of CHO cells expressing rat apelin receptor-EGFP.
The target is the same in assay [4]. As to the kind of experiment: cell-based or functional assay. This is another data set of the same source.
Assay [5] shares this target. As to the kind of experiment: competitive radioligand binding vs [125I]-pE13F, rat apelin receptor-EGFP in CHO membranes.
Assay [6] has the same target. Briefly: cell-based or functional assay. This is another data set of the same source.
The target is the same in assay [7]. As to the kind of experiment: cell-based or functional assay. The source holds these as a separate data set.
For assay [8] the target is unchanged. Briefly: competitive radioligand binding vs [125I]-pE13F, membranes of CHO cells expressing rat apelin receptor-EGFP. This is another data set of the same source.

The molecule “pE13F (pyroglutamyl form of apelin 13) (peptide)” returned an inhibition of forskolin-induced cAMP production IC50 in assay [1] of 1 nM.

On to pE13(4Br-Phe^13) (peptide), for which the inhibition of forskolin-induced cAMP production IC50 in assay [1] stood at 0.1 nM.

In assay [2], {acyl group}-KF[dR]R[dQ]RPR[dL]S[Aib]K[dA]P[Nle]P[Phe(4-Br)] (reading uncertain; also: acyl group on the NH2α of Lys 1) [LIPO-P92] showed a Ki of 0.25 nM and a factor of decreased affinity as compared to P92 of 2 to 3 fold.

KKFRRQRPRLSHKGPMPF (acyl group RC(O)- on the εNH2 of the added N-terminal linker L-lysine) [JFM V-0210/2]: the Ki in assay [3] is 1.33 nM. In addition, the IC50 cAMP inhibition in assay [4] turned out to be 1.4 nM.

The molecule Palmitoyl-KFRRQRPRLSHKGPMPF [JFM V-0196A] showed a Ki in assay [3] of 0.76 nM. In assay [4], this molecule registered an IC50 cAMP inhibition of 3.9 nM and a cAMP production IC50 of 3.9 nM.

In assay [3], K(Palmitoyl)FRRQRPRLSHKGPMPF [JFM V-0220A] returned a Ki of 1.43 nM. The molecule further returned an IC50 cAMP inhibition in assay [4] of 2 nM.

The molecule XRPRLSHKGPXPF (pGlu at 1; Nle (norleucine) at 11) [pE13F(Nle^11)] gave an inhibition of forskolin-induced cAMP production IC50 in assay [4] of 1 nM.

For the molecule XRPRLSXKGPMPF (pGlu at 1; Aib (α-aminoisobutyric acid) at 7) [pE13F(Aib^7)], the inhibition of forskolin-induced cAMP production IC50 in assay [4] worked out at 1.2 nM. In assay [5], this molecule yielded a Ki of 2.6 nM.

Turning to Ac-KFRRQRPR[dL]S[Aib]K[dA]P[Nle]P[Phe(4-Br)] (not fully specified (residue 3)) [P96], the IC50 in assay [3] was determined as 0.11 nM. The cAMP production IC50 in assay [6] came out at 0.45 nM.

Ac-KFRR[dQ]RPR[dL]S[Aib]K[dA]P[Nle]P[Phe(4-Br)] [P95] registered an IC50 in assay [3] of 0.03 nM. This molecule also had a cAMP production IC50 in assay [6] of 0.34 nM. The same molecule showed a factor of improved affinity as compared to K17F in assay [5] of 10 fold.

As for {fluorocarbon group}-KF[dR]R[dQ]RPR[dL]S[Aib]K[dA]P[Nle]P[Phe(4-Br)] (reading uncertain; also: fluorocarbon group on the NH2α of Lys 1) [FLUORO-P92], in assay [2], the Ki came out at 0.31 nM.

Regarding K(heptadecafluoroundecanoyl)FRRQRPRLSHKGPMPF [JFM V-0220B], the Ki in assay [3] is 0.16 nM. In assay [4], this molecule gave an IC50 cAMP inhibition of 1 nM.

Turning to Ac-RPRLSHKGPMPF [Ac-R12F], the inhibition of forskolin-induced cAMP production IC50 in assay [4] was 2.4 nM. The inhibitory constant (Ki) in assay [5] came out at 1.4 nM.

B1: JFM V-0210/1 (peptide)
peptide: KKFRRQRPRLSHKGPMPF
modifications: fluorocarbon (perfluoroalkyl) group on the εNH2 of the added N-terminal linker L-lysine
In assay [3], B1 yielded a Ki of 0.18 nM. The molecule also had an IC50 cAMP inhibition in assay [4] of 3.8 nM.

On to {Propanoyl(3-C8F17)}-KFRRQRPRLSHKGPMPF [JFM V-0196B], for which, in assay [3], the Ki came out at 0.21 nM. In assay [7], this molecule returned an ERK1/2 phosphorylation EC50 of 0.89 nM, an Inhibition of FSK-induced cAMP production IC50 of 3.13 nM and an Internalization EC50 of 0.41 nM. This molecule gave a Ki in assay [8] of 0.08 nM. Also, in assay [4], the IC50 cAMP inhibition is 3.1 nM and the cAMP production IC50 was 3.1 nM.
